# B1: Signal Peptide Peptidase-like 2c, C-terminally myc-tagged (SPPL2c-myc) (enzyme)
# chain: EYGLVRVVSKNWSKDYCVLYSSDYVNLPRDLHHAPLLSLHDGTKTPWCPDEDSFHQAQDSSPRQRPLHQTTTMVTRGNCSFYAKGWLAQDQGAQGLLIVSRARNQQCSDTISKPQDPSKPWPALTIPVAVLRYTDMLDIVSHTYGDTDVRVAMFAPLEPVTDYNMAIIFILAVGTVAAGGYWAGLMEANKLQRRQAQRGGGLGGHNQQQTVAAERSQRAWEDDDFEDAPMDFTPAMTGAVVTMSCSIMILLYFFYDCFVYVMIGIFSLGASTGLYSCLAPILCHLPLWRYQWVLPGQRVSVTWPLLLLAGLCAMVTVLWVIHRNEDHWAWLLQDTLGVAYCLFVLRRVRLPTFKNCTLFLLALLAFDVFFVFITPLFTKTGESIMVEVASGPADSSSHERLPMVLKVPRLSFSALTLCNQPFSILGFGDIVVPGFLVAYCHRFDMQVQSRQVYYMACTVAYAVGLLVTFVAMILMQMGQPALLYLVSSTLLTSLAVATCRQEFTLFWTGQGRAKIPAEPVAQPCIASAVGSKMKLEDAKDSRTTNRFEQAVDGESGDLESSTGDDMAEMVTLSEDEATSPEGHSESSEGWSDTNLDPNELPSGSPMALEAMLIPLIQPIPHPSELGHIRTQSRVHDSSLPWMGLHKRKGLKVKKSMSAQAPL
# Experiments:
# [1] = biological target: Signal Peptide Peptidase-like 2c, C-terminally myc-tagged (SPPL2c-myc) (murine) (UniProt A2A6C4)
# [2] = biological target: Frey1 CD74-Lum (Frey1-3xFLAG with its luminal domain replaced by the first 70 aa of the luminal segment of CD74) (murine) (UniProt Q8CF31); assay: co-IP; anti-FLAG M2 and Protein G agarose from 0.5% CHAPSO lysates (1 mg in 500 µl, overnight, 4 °C) of transiently transfected HEK293T cells; four washes with CHAPSO buffer; eluates blotted; co-precipitated SPPL2c divided by the precipitated Frey1 or PLN variant and normalised to wild-type Frey1
Molecule,"inhibition of SPPL2c-mediated processing of HA-RAMP4-2 in HEK cells (Fig. 4H, I) [1] [%]","co-precipitated SPPL2c, percent of wild-type Frey1, normalised to the expression level [2] [%]"
"PLN PRSAG (3xFLAG-PLN with the Frey1 residues P11, R12, S16, A25 and G26 at the corresponding positions of its membrane anchor) (from UniProt P61014 1-52)",50,–
B1,–,20
